We go through three variants from FireProtDB (doi:10.1007/s10930-015-9600-7).

B1: Carboxymethylenebutenolidase, P0A115 (parent)
chain: MLTEGISIQSYDGHTFGALVGSPAKAPAPVIVIAQEIFGVNAFMRETVSWLVDQGYAAVCPDLYARQAPGTALDPQDERQREQAYKLWQAFDMEAGVGDLEAAIRYARHQPYSNGKVGLVGYCLGGALAFLVAAKGYVDRAVGYYGVGLEKQLKKVPEVKHPALFHMGGQDHFVPAPSRQLITEGFGANPLLQVHWYEEAGHSFARTSSSGYVASAAALANERRLDFLAPLQSKKP

The variants in this series derive from B1. Conditions: Pseudomonas knackmussii (strain DSM 6978 / CCUG 54928 / LMG 23759 / B13), pH 7.5, Thermal, Hepes 50 mM, structure 4U2B, whole UniProt chain shown.

Turning to MLTEGISIQSYDGHTFGALVGSPAKAPAPVIVIAQEIFGVNAFMRETVSWLVDQGYAAVCPDLYARQAPGTALDPQDERQREQAYKLWQAFDMEAGVGDLEAAIRYARHLPYSNGKVGLVGYCLGGALAFLVAAKGYVDRAVGYYGVGLEKQLDKVPEVKHPALFHMGGQDHFVPAPSRQLITEGFGANPLLQVHWYEEAGHSFARTSSSGYVASAAALANERRLDFLAPLQSKKP [Q110L K154D], for the setting “Activity, NaCl 75 mM”, the Tm came out at 54.2 °C and the “change of melting temperature, mutant - wild type (higher = more stable)” value (“change of melting temperature, mutant” below) amounted to 3.1 °C. In addition, under “fluorescence”, the Tm turned out to be 54.8 °C and the “change of melting temperature, mutant” value worked out at 3.3 °C.
On to MLTEGISIQSYDGHTFGALVGSPAKAPAPVIVIAQEIFGVNAFMRETVSWLVDQGYAAVCPDLYARQAPGTALDPQDERQREQAYKLWQAFDMEAGVGDLEAAIRYARHQPYSNGKVGLVGYCLGGALAFLVAAKGYVDRAVGYYGVGLEKQLDKVPEVKHPALFHMGGQDHFVPAPSRQLITEGFGANPLLQVHWYEEAGHSFARTSSSGYVASAAALANERRLDFLAPLQSKKP [K154D], for which, under “Activity, NaCl 75 mM”, the Tm amounted to 53.9 °C and the “change of melting temperature, mutant” value worked out at 2.7 °C. Also, under “fluorescence”, the Tm came out at 54.4 °C and the “change of melting temperature, mutant” value was 2.9 °C.
As for MLTEGISIQSYDGHTFGALVGSPAKAPAPVIVIAQEIFGVNAFMRETVSWLVDQGYAAVCPDLYARQAPGTALDPQDERQREQAYKLWQAFDMEAGVGDLEAAIRYARHQPYSNGKVGLVGYCLGGALAFLVAAKGCVDRAVGYYGVGLEKQLKKVPEVKHPALFHMGGQDHFVPAPSRQLITEGFGANPLLQVHWYEEAGHSFARTSSSGYVASAAALANERRLDFLAPLQSKKP [Y137C], for the setting “Activity, NaCl 75 mM”, the Tm was determined as 49.3 °C and the “change of melting temperature, mutant” value was -1.9 °C. Where the note is “fluorescence”, the Tm stood at 50.8 °C and the “change of melting temperature, mutant” value is -0.7 °C.

For orientation: Tm means the temperature at which the thermal transition is half complete.
